Assay results as given in article PMC10981135.
Changes are numbered by the printed parent chain. Like-named read-outs stand apart in the source and are kept apart here.

Columns and labels:
Test in all cases: BLI
[1] = target: T1, PfAlba6 (Plasmodium falciparum 3D7, UniProt Q8I617)
T1 sequence: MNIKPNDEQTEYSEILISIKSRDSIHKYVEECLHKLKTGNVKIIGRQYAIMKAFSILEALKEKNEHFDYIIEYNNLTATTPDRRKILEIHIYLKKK

[2] = target: T2, PfAlba6 Y28A (Plasmodium falciparum 3D7, UniProt Q8I617 1-96, Y28A)
T2 sequence: T1 sequence with Y28A

[3] = target: T2, PfAlba6 Y28A; remark: listed apart in the source

B1: 28 bp dsDNA (C28) (dsDNA)
DNA 1: TGGCGAAAGGGGGTTGTGCTGCAAGGCG
DNA 2: CGCCTTGCAGCACAACCCCCTTTCGCCA
Kd [1]: 10 ± 0.37 nM | Kd [2]: 10 ± 0.9 nM | Kd [3]: 12.1 ± 0.83 nM
